Assay [1] concerns the target T1, hIL-13Rα1.ECR (N-terminal FLAG-tagged fusion protein of the extracellular region of human IL-13Rα1) (human) (UniProt P78552).
T1 sequence: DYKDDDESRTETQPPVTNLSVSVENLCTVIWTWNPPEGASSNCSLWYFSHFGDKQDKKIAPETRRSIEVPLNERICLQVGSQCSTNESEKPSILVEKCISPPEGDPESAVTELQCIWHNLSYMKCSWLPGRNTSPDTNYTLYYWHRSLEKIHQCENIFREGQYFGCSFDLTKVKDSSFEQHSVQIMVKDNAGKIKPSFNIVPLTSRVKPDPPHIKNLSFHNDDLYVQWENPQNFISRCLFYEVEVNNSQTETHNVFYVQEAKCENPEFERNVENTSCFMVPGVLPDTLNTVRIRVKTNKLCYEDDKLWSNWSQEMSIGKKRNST
The assay can be described thus: ELISA on plate-bound hIL-13Rα1.ECR.

The target of assay [2] is T1, hIL-13Rα1.ECR (N-terminal FLAG-tagged fusion protein of the extracellular region of human IL-13Rα1) (human). In words: BIACORE SPR, hIL-13Rα1.ECR immobilized on CM5 chip, antibody as analyte, bivalent model. (In general: In SPR one partner is held on a chip, and binding of the other changes the refractive index at the surface.)
Assay [3] deals with T2, human IL-13Rα1 on normal human dermal fibroblast (NHDF) cells (human) (UniProt P78552).
T2 sequence: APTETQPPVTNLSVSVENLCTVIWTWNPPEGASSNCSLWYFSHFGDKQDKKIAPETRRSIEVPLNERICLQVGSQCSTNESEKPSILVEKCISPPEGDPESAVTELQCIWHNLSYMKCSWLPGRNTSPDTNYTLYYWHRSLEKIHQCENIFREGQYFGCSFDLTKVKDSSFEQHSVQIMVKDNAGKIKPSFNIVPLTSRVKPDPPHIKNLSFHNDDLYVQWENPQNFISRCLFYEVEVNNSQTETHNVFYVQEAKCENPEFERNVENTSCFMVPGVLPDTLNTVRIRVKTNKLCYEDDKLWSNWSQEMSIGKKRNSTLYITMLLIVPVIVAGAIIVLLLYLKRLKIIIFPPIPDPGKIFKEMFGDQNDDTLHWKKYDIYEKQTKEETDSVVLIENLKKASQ
The assay can be described thus: cell-based or functional assay.

B1: 4A10 (antibody, part only; not given: light chain, V domains shown, part only)
VH: QVQLVESGGGVVQPGRSLRLSCAASGFTFSNYGMHWVRQAPGKGLEWVAAIWYDGSDKNYADSVKGRVTISRDTSKKTLYLQMNSLRAEDTAIYYCAREITIMRGLIKNYYYYGMDVWGQGTTVTVSS
Turning to B1, the Kd came to 1.2 nM in assay [1] and 5.8 nM in assay [2]. The molecule further displayed an NHDF cells IL-13 Eotaxin release (IC50) [on average] in assay [3] of 0.35 µg/mL.

Source of the values: patent publication US20090285799A1.
